The text below walks through data of patent publication US20160031992A1.

Where a chain is given by its changes, count along the chain named.

The chains are these.
B1: humanized 1A8 antibody VH1/Vκ1 (antibody, IgG1, V domains shown)
VH: QVQFVQSGPELKKPGASVKVSCKGSSYTFTDYTMHWVKLAHAKTLEWIGVIDTYYGKTNYNQKFEGRATMTVDKSSSTAYMELARLRSEDSAVYYCARGGFRRGDRPSLRYAMDSWGQGTSVTVSS
VL: DIVLTQSPDSLAVSLGERATINCRASQSVSISTYSYIHWFQQKPGQPPKLLIKYASNLESGVPDRFSGSGSGTDFTLNIHPVEEEDVGIYYCQHSWEIPYTFGGGTKVEIK
B2: humanized 1A8 antibody VH3/Vκ1 (antibody, IgG1, V domains shown)
VH: B1 VH with F4L, P9A, L11V, K38R, H41S, A84S, R85S, S91T, S121L
VL: B1 VL
B3: humanized 1A8 antibody VH1/Vκ3 (antibody, IgG1, V domains shown)
VH: B1 VH
VL: B1 VL with L4M, N78K, H80S, P81R, E84A
B4: humanized 1A8 antibody VH4/Vκ3 (antibody, IgG1, V domains shown)
VH: B1 VH with F4L, P9A, L11V, K38R, H41S, M70I, A84S, R85S, S91T, S121L
VL: B1 VL with L4M, N78K, H80S, P81R, E84A
B5: humanized 1A8 antibody VH2/Vκ3 (antibody, IgG1, V domains shown)
VH: B1 VH with F4L, P9A, L11V, H41S, A84S, R85S, S91T, S121L
VL: B1 VL with L4M, N78K, H80S, P81R, E84A
B6: humanized 1A8 antibody VH1/Vκ2 (antibody, IgG1, V domains shown)
VH: B1 VH
VL: B1 VL with N78K, H80S, P81R
B7: humanized 1A8 antibody VH3/Vκ3 (antibody, IgG1, V domains shown)
VH: B1 VH with F4L, P9A, L11V, K38R, H41S, A84S, R85S, S91T, S121L
VL: B1 VL with L4M, N78K, H80S, P81R, E84A
B8: humanized 1A8 antibody VH2/Vκ2 (antibody, IgG1, V domains shown)
VH: B1 VH with F4L, P9A, L11V, H41S, A84S, R85S, S91T, S121L
VL: B1 VL with N78K, H80S, P81R
B9: humanized 1A8 antibody VH4/Vκ1 (antibody, IgG1, V domains shown)
VH: B1 VH with F4L, P9A, L11V, K38R, H41S, M70I, A84S, R85S, S91T, S121L
VL: B1 VL
B10: humanized 1A8 antibody VH2/Vκ1 (antibody, IgG1, V domains shown)
VH: B1 VH with F4L, P9A, L11V, H41S, A84S, R85S, S91T, S121L
VL: B1 VL
B11: humanized 1A8 antibody VH4/Vκ2 (antibody, IgG1, V domains shown)
VH: B1 VH with F4L, P9A, L11V, K38R, H41S, M70I, A84S, R85S, S91T, S121L
VL: B1 VL with N78K, H80S, P81R

The target of the first test is integrin αvβ6 on NIH3T3β6 cells (NIH3T3 cells transfected with β6). The test is described as follows: FACS on NIH3T3β6 cells, geometric MFI against antibody concentration.
As to B1, the EC50 relative to chimeric antibody (ratio to chimeric antibody) stood at 1.13.
As for B2, the EC50 relative to chimeric antibody (ratio to chimeric antibody) is 2.86.
As to B3, the EC50 relative to chimeric antibody (ratio to chimeric antibody) stood at 1.04.
B4: the EC50 relative to chimeric antibody (ratio to chimeric antibody) is 2.96.
On the same count and under the same terms, for B5 the value was 2.46; for B6, 1.07.
The same measure, in the same setting: the value for B7 was 2.41; that for B8 was 2.4; that for B9 was 3.57.
For the molecule B10, the EC50 relative to chimeric antibody (ratio to chimeric antibody) is 3.
For B11, the EC50 relative to chimeric antibody (ratio to chimeric antibody) amounted to 3.24.

A further test deals with biotinylated αvβ6. Description: inhibition of biotinylated αvβ6 binding to plate-coated LAP, streptavidin-HRP.
Regarding B1, the IC50 relative to chimeric antibody (ratio to chimeric antibody) is 1.02.
In the case of B2, the IC50 relative to chimeric antibody (ratio to chimeric antibody) amounted to 1.07.
The same measure, in the same setting: for B3 the value was 1.05; for B4, 1.74; for B5, 0.98.
The same measure, in the same setting: the value for B6 was 1.19; that for B7 was 1.2; that for B8 was 1.32.
Take B9: the IC50 relative to chimeric antibody (ratio to chimeric antibody) amounted to 1.93.
Regarding B10, the IC50 relative to chimeric antibody (ratio to chimeric antibody) stood at 1.48.
On the same count and under the same terms, the value for B11 was 2.3.
